Measurements from patent US20260347506 (published 2026).
“And” between values parts separate entries of the source, which are not always exact repeats. Identical values can stand only once.

T1: human IgE (human, UniProt P01854)
T1 chain: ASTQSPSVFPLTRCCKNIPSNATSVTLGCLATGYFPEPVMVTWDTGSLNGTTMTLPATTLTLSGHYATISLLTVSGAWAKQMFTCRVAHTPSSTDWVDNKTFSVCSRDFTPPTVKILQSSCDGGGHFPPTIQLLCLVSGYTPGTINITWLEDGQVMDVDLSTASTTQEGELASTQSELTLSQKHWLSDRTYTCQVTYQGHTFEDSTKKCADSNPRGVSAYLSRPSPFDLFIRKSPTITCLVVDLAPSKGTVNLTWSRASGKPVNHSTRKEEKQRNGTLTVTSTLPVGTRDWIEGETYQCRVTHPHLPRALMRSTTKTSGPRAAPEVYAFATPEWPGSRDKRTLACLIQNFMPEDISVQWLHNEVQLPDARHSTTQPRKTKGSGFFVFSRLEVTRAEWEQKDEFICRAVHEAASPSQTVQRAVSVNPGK


Experiments:
[1] = target: T1, human IgE; experiment: ELISA, pH 5.5
[2] = target: T1, human IgE; experiment: ELISA, pH 7.4
[3] = target: T1, human IgE; experiment: competition ELISA
[4] = target: T1, human IgE; experiment: SPR, pH 6.0
[5] = target: T1, human IgE; experiment: SPR, pH 7.4
[6] = target: T1, human IgE; experiment: competition SPR, pH 6.0
[7] = target: T1, human IgE; experiment: competition SPR, pH 7.4
[8] = target: T1, human IgE; experiment: competition SPR, pH 6.0
[9] = target: T1, human IgE; experiment: competition SPR, pH 7.4
[10] = target: T1, human IgE; experiment: competition ELISA, pH 6.0
[11] = target: T1, human IgE; experiment: competition ELISA, pH 7.4
[12] = target: T1, human IgE; experiment: competition ELISA, pH 7.4
[13] = target: T1, human IgE; experiment: competition ELISA, pH 6.0
[14] = target: T1, human IgE; experiment: competition SPR, pH 7.4
[15] = target: T1, human IgE; experiment: competition SPR, pH 5.5
[16] = target: T1, human IgE; experiment: SPR

| IC50 [7] [µg/mL] | IC50 [8] [µg/mL] | IC50 [12] [µg/mL] | IC50 [13] [µg/mL] | Binder | also measured |
| --- | --- | --- | --- | --- | --- |
| 3 | 3.2 | 0.0065 | 0.0106 | 13E4-hIgG1-ABDEG (antibody, V domains shown) VH: ELQLVESGGGLVQPGGSLRLSCAASGFTFSSYVMSWVRQAPGKGLEWVSSIYHDGSHTYYADFVKGRFTISRDNAKNTLYLQMNSLKSEDTAVYYCASGTSYSGSYYYTDPFFGSWGQGTQVTVSS VL: HSAVTQPSALSVTLGQTAKITCQGGSLGSNYAYWYQQKPGQAPVLVIYDDDSRPSGIPERFSGSSSGGTATLTISGAQAEDEGDYYCQSADSNGNAVFGGGTHLTVL | – |
| 2.7 | 58.5 | 0.19 | 3.02 | VL18B9_Y49H (18B9His) (antibody, V domains shown) VH: QVQLVESGGGLVQPGGSLRLSCAASGFTFSSYVMSWVRQAPGKGLEWVSSIYSDGSHTYYADSVKGRFTISRDNAKNTLYLQMNSLKSEDTAVYYCAKNLEHYSGSYYYTDPRYDYWGQGTQVTVSS VL: SSALTQPSALSVTLGQTAKITCQGGSLGSSYVHWYQQKPGQAPVLVIHDGDSRPSGIPERFSGSSSGGTATLTISGAQAEDEDDYYCQSADSSGNAVFGGGTHLTVL | IC50 [14]: 0.749 µg/mL; IC50 [15]: 4.06 µg/mL |

More lines, now with the values behind:

| Binder | IC50 [7] [µg/mL] | IC50 [8] [µg/mL] | IC50 [12] [µg/mL] | IC50 [13] [µg/mL] | also measured |
| --- | --- | --- | --- | --- | --- |
| 18E2_VLY34H_MG (18E2VL) (antibody, V domains shown) VH: QLLESGGGLVQPGGSLRLSCAASGFTFSSYVMSWVRQAPGKGLEWVSSIYHDGSHTYYADFVKGRFTISRDNSKNTLYLQMNSLRAEDTAVYYCAKGTSYSGSYYYTDPFFGSWGQGTLVTVSS VL: SSELTQDPAVSVALGQTVRITCQGDRLGSRYIHWYQQKPGQAPVLVIYDDDRRPSGIPDRFSGSSSGNTASLTITGAQAEDEADYYCQSADSSGNPVFGGGTQLTVL | – | – | – | – | EC50 [1]: 0.0269 µg/mL and 0.0323 µg/mL; EC50 [2]: 0.02 µg/mL and 0.0163 µg/mL; IC50 [3]: 6.06 nM |
| 18E2VLHis MG hIgG1-ABDEG (antibody, V domains shown) VH: QLLESGGGLVQPGGSLRLSCAASGFTFSSYVMSWVRQAPGKGLEWVSSIYHDGSHTYYADFVKGRFTISRDNSKNTLYLQMNSLRAEDTAVYYCAKGTSYSGSYYYTDPFFGSWGQGTLVTVSS VL: SSELTQDPAVSVALGQTVRITCQGDRLGSRYIHWYQQKPGQAPVLVIYDDDRRPSGIPDRFSGSSSGNTASLTITGAQAEDEADYYCQSADSSGNPVFGGGTQLTVL | – | – | – | – | Kd [4]: 205 nM; Kd [5]: 5.91 nM |
| 13E4 (antibody, V domains shown) VH: ELQLVESGGGLVQPGGSLRLSCAASGFTFSSYVMSWVRQAPGKGLEWVSSIYHDGSHTYYADFVKGRFTISRDNAKNTLYLQMNSLKSEDTAVYYCASGTSYSGSYYYTDPFFGSWGQGTQVTVSS VL: HSAVTQPSALSVTLGQTAKITCQGGSLGSNYAYWYQQKPGQAPVLVIYDDDSRPSGIPERFSGSSSGGTATLTISGAQAEDEGDYYCQSADSNGNAVFGGGTHLTVL | 2.3 | 2.5 | 0.00682 | 0.0114 | IC50 [6]: 1.54 nM; IC50 [9]: 1.62 nM; IC50 [10]: 12.9 nM; IC50 [11]: 10.3 nM |
| 18E2His2-hIgG1-ABDEG (antibody, V domains shown) VH: QLQLVESGGGLVQPGGSLRLSCAASGFTFSSYVMHWVRQAPGKGLEWVSSIYHDGSHTYYADFVKGRFTISRDNAKNTLYLQMNSLKSEDTAVYYCASGTSYSGSYYYTDPFFGSWGQGTQVTVSS VL: NFMLTQPSALSVTLGQTARITCQGDRLGSRYIHWYQQKPPQAPVLVIHDDDRRPSGIPERFSGSSSGGTATLTISGAQAEDDGDYYCQSADSSGNPVFGGGTHLTVL | 5.8 | 7320 | 1.49 | 26.6 | – |
| 18E2_VH_S35H_VL_Y34H (18E2His2) (antibody, V domains shown) VH: QLQLVESGGGLVQPGGSLRLSCAASGFTFSSYVMHWVRQAPGKGLEWVSSIYHDGSHTYYADFVKGRFTISRDNAKNTLYLQMNSLKSEDTAVYYCASGTSYSGSYYYTDPFFGSWGQGTQVTVSS VL: NFMLTQPSALSVTLGQTARITCQGDRLGSRYIHWYQQKPPQAPVLVIHDDDRRPSGIPERFSGSSSGGTATLTISGAQAEDDGDYYCQSADSSGNPVFGGGTHLTVL | 6 | 6310 | 2.48 | 77.2 | IC50 [14]: 1.56 µg/mL; IC50 [15]: 9.86 µg/mL |
| 18B9His-hIgG1-ABDEG (antibody, V domains shown) VH: QVQLVESGGGLVQPGGSLRLSCAASGFTFSSYVMSWVRQAPGKGLEWVSSIYSDGSHTYYADSVKGRFTISRDNAKNTLYLQMNSLKSEDTAVYYCAKNLEHYSGSYYYTDPRYDYWGQGTQVTVSS VL: SSALTQPSALSVTLGQTAKITCQGGSLGSSYVHWYQQKPGQAPVLVIHDGDSRPSGIPERFSGSSSGGTATLTISGAQAEDEDDYYCQSADSSGNAVFGGGTHLTVL | 2.9 | 52.9 | 0.13 | 2.55 | – |
| OMA VH15-VL3 (antibody, V domains shown) VH: EVQLVESGGGLVQPGGSLRLSCAVSGYSITSGHRWEWIRQAPGKGLEWVASIHYDGSTNYNPSVKGRITISRDDSKNTFYLQMNSLRAEDTAVYYCARATHYFGHWHFAVWGQGTLVTVSS VL: DIQLTQSPSSLSASVGDRVTITCRASQSVDYDGDSYMNWYQQKPGKAPKLLIEWGSYLRSGVPSRFSGSGSGTDFTLTISSLQPEDFATYYCQQNAEDPYTFGQGTKVEIK | – | – | – | – | Kd [16]: 0.0874 pM |
